Measurements as given in patent US7745587 (DYAX, dated 2010).

Assays:
[1] = molecular target: human MMP-14 (human, UniProt P50281 112-541, limits assumed); assay: cell-based or functional assay
[2] = molecular target: MMP-24 (human, UniProt Q9Y5R2 156-328, limits assumed); assay: cell-based or functional assay
Sequence of MMP-24 (Q9Y5R2 156-328 limits assumed): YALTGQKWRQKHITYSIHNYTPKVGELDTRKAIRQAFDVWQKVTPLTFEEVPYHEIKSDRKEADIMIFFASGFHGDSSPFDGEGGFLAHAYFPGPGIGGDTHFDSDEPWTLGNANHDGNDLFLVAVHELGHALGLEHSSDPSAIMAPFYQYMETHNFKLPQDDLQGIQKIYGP

Binder | IC50 of MMP-14 inhibition (MMP-14 at 2 pM), Fab [1] [nM] | IC50 of MMP-14 inhibition (MMP-14 at 2 pM), IgG [1] [nM] | MMP-24 activity, 100 nM final Fab with 5 nM MMP-24 [2] [% inhibition]
M0038-E06 Fab (Fab, V domains shown) VH: EVQLLESGGGLVQPGGSLRLSCAASGFTFSPYVMHWVRQAPGKGLEWVSSISPSGGWTYYADSVKGRFTISRDNSKNTLYLQMNSLRAEDMAVYYCARGTGAYGMDVWGQGTTVTVSS VL: DIQMTQSPGTLSLSPGDRATLSCGASQLVVSNYIAWYQQKPGQAPRLLMYAGSIRATGIPDRFSGSGSGTDFTLTISRLEPEDFAIYYCQQRSNWPWTFGQGTKVEIK | 16.6 |  | 
M0038-E06 IgG (antibody, V domains shown) VH: EVQLLESGGGLVQPGGSLRLSCAASGFTFSPYVMHWVRQAPGKGLEWVSSISPSGGWTYYADSVKGRFTISRDNSKNTLYLQMNSLRAEDMAVYYCARGTGAYGMDVWGQGTTVTVSS VL: DIQMTQSPGTLSLSPGDRATLSCGASQLVVSNYIAWYQQKPGQAPRLLMYAGSIRATGIPDRFSGSGSGTDFTLTISRLEPEDFAIYYCQQRSNWPWTFGQGTKVEIK |  | 7.2 | 
M0031-F01 Fab (Fab, V domains shown) VH: EVQLLESGGGLVQPGGSLRLSCAASGFTFSTYEMHWVRQAPGKGLEWVSSIYSSGGWTGYADSVKGRFTISRDNSKNTLYLQMNSLRAEDTAVYYCARSQQYYDFSSRYYGMDVWGQGTTVTVSS VL: QSELTQPPSVSGTPGQRVTISCSGTSANIGRNAVHWYQQLPGTAPKLLIHSNNRRPSGVPDRFSGSKSGTSASLAISGLQSEDEADYYCAAWENSLNAFYVFGTGTKVTVL | 25.3 |  | 
M0031-F01 IgG (antibody, V domains shown) VH: EVQLLESGGGLVQPGGSLRLSCAASGFTFSTYEMHWVRQAPGKGLEWVSSIYSSGGWTGYADSVKGRFTISRDNSKNTLYLQMNSLRAEDTAVYYCARSQQYYDFSSRYYGMDVWGQGTTVTVSS VL: QSELTQPPSVSGTPGQRVTISCSGTSANIGRNAVHWYQQLPGTAPKLLIHSNNRRPSGVPDRFSGSKSGTSASLAISGLQSEDEADYYCAAWENSLNAFYVFGTGTKVTVL |  | 15.2 | 
M0031-C02 IgG (antibody, V domains shown) VH: EVQLLESGGGLVQPGGSLRLSCAASGFTFSPYPMGWVRQAPGKGLEWVSSIVSSGGLTLYADSVKGRFTISRDNSKNTLYLQMNSLRAEDTAVYYCARGGRLYDILTGQGAPFDYWGQGTLVTVSS VL: DIQMTQSPLSLPVTPGEPASISCRSSQSLLHSNGYYYLDWYLQKPGQSPQLLIYLGSYRASGVPDRFSGSGSGTDFTLKISSVEAEDVGVYYCMQALQTPLTFGGGTRVDIK |  | 8 | 
M0033-H07 Fab (Fab, V domains shown) VH: EVQLLESGGGLVQPGGSLRLSCAASGFTFSVYGMVWVRQAPGKGLEWVSVISSSGGSTWYADSVKGRFTISRDNSKNTLYLQMNSLRAEDTALYYCARPFSRRYGVFDYWGQGTLVTVSS VL: DIQMTQSPSSLSASVGDRVTITCRASQGIRNFLAWYQQKPGKVPKLLVFGASALQSGVPSRFSGSGSGTDFTLTISGLQPEDVATYYCQKYNGVPLTFGGGTKVEIK | 11.5 |  | 
M0038-F08 Fab (Fab, V domains shown) VH: EVQLLESGGGLVQPGGSLRLSCAASGFTFSRYKMWWVRQAPGKGLEWVSGIRPSGGLTRYADSVKGRFTISRDNSKNTLYLQMNSLRAEDTAVYYCARRGDYVGGFDYWGQGTLVTVSS VL: DIQMTQSPGTLSLSPGERATLSCRASQSVSSSYLAWYQQKPGQAPRLLIYGASSRATGIPDRFSGSGSGTDFTLTISRLEPEDFAVYYCQHYGGSQAFGGGTKVEIK | 31.1 |  | 
M0038-F08 IgG (antibody, V domains shown) VH: EVQLLESGGGLVQPGGSLRLSCAASGFTFSRYKMWWVRQAPGKGLEWVSGIRPSGGLTRYADSVKGRFTISRDNSKNTLYLQMNSLRAEDTAVYYCARRGDYVGGFDYWGQGTLVTVSS VL: DIQMTQSPGTLSLSPGERATLSCRASQSVSSSYLAWYQQKPGQAPRLLIYGASSRATGIPDRFSGSGSGTDFTLTISRLEPEDFAVYYCQHYGGSQAFGGGTKVEIK |  | 23 | 
M0039-H08 Fab (Fab, V domains shown) VH: EVQLLESGGGLVQPGGSLRLSCAASGFTFSAYNMGWVRQAPGKGLEWVSSISSSGGYTGYADSVKGRFTISRDNSKNTLYLQMNSLRAEDTAVYYCARDLYRGFDYWGQGTLVTVSS VL: DIQMTQSPATLSVSPGERATLSCRASESVKNNLAWYQQKPGQAPRLLIYGVSTRAPGIPARFSGSGSGTDFTLTISSLEPEDFAVYYCQQRSNWPPVTFGQGTRLEIK | 23 |  | 
M0039-H08 IgG (antibody, V domains shown) VH: EVQLLESGGGLVQPGGSLRLSCAASGFTFSAYNMGWVRQAPGKGLEWVSSISSSGGYTGYADSVKGRFTISRDNSKNTLYLQMNSLRAEDTAVYYCARDLYRGFDYWGQGTLVTVSS VL: DIQMTQSPATLSVSPGERATLSCRASESVKNNLAWYQQKPGQAPRLLIYGVSTRAPGIPARFSGSGSGTDFTLTISSLEPEDFAVYYCQQRSNWPPVTFGQGTRLEIK |  | 7.4 | 
M0040-A11 IgG (antibody, V domains shown) VH: EVQLLESGGGLVQPGGSLRLSCAASGFTFSHYVMFWVRQAPGKGLEWVSRIVPSGGATMYADSVKGRFTISRDNSKNTLYLQMNSLRAEDTAVYYCARDRPLYDSSGYVDYWGQGTLVTVSS VL: QSALTQPPSASGSPGQSVTISCTGTSSDVGAYNYVSWYQQHPDKAPKLIIYNVNERPSGVPDRFSGSKSGNTASLTVSGLQAEDEADYYCTSYAGSNKIGVSGTGTKVTVL |  | 6.7 | 
M0037-D01 Fab (Fab, V domains shown) VH: EVQLLESGGGLVQPGGSLRLSCAASGFTFSMYMMIWVRQAPGKGLEWVSSIYPSGGNTMYADSVKGRFTISRDNSKNTLYLQMNSLRAEDTAVYYCATGVLRYFDWDAGSGMDVWGQGTTVTVSS VL: DIQMTQSPSSLSASVGDRVTITCRASQGIRNDLGWYQQKPGKAPKRLIYVASSLQSGVPSRFSGSGSGTEFTLTISSLQPEDFATYYCLQHNSYPWTFGQGTKVEIK | 4.3 |  | 
M0040-A06 Fab (Fab, V domains shown) VH: EVQLLESGGGLVQPGGSLRLSCAASGFTFSYYGMYWVRQAPGKGLEWVSSISSSGGYTDYADSVKGRFTISRDNSKNTLYLQMNSLRAEDTAVYYCARRIKYYDIEGEGAFDIWGQGTMVTVSS VL: DIVMTQTPPSLPVNPGEPASISCRSSQSLLHRNGYNYLDWYLQKPGQSPQLLIHLGSYRASGVPDRFSGSGSGTDFTLKISRVEAEDVGVYYCMQPLQTPFTFGPGTKVDIK | 8.6 |  | 65
M0040-A06 IgG (antibody, V domains shown) VH: EVQLLESGGGLVQPGGSLRLSCAASGFTFSYYGMYWVRQAPGKGLEWVSSISSSGGYTDYADSVKGRFTISRDNSKNTLYLQMNSLRAEDTAVYYCARRIKYYDIEGEGAFDIWGQGTMVTVSS VL: DIVMTQTPPSLPVNPGEPASISCRSSQSLLHRNGYNYLDWYLQKPGQSPQLLIHLGSYRASGVPDRFSGSGSGTDFTLKISRVEAEDVGVYYCMQPLQTPFTFGPGTKVDIK |  | 1.7 | 
M0038-F01 Fab (Fab, V domains shown) VH: EVQLLESGGGLVQPGGSLRLSCAASGFTFSLYSMNWVRQAPGKGLEWVSSIYSSGGSTLYADSVKGRFTISRDNSKNTLYLQMNSLRAEDTAVYYCARGRAFDIWGQGTMVTVSS VL: DIQMTQSPSSLSAFVGDKVTITCRASQSVGTYLNWYQQKAGKAPELLIYATSNLRSGVPSRFSGSGSGTDFTLTINTLQPEDFATYYCQQSYSIPRFTFGPGTKVDIK | 3.8 |  | 
